{"source": "paper PMC11565396", "about": "(Journal of Lipid Research, 2024)", "proteins": {"B1": {"name": "6xHis-VP40 (recombinant full-length EBOV VP40, dimer) (natural protein)", "chain": "MRRVILPTAPPEYMEAIYPVRSNSTIARGGNSNTGFLTPESVNGDTPSNPLRPIADDTIDHASHTPGSVSSAFILEAMVNVISGPKVLMKQIPIWLPLGVADQKTYSFDSTTAAIMLASYTITHFGKATNPLVRVNRLGPGIPDHPLRLLRIGNQAFLQEFVLPPVQLPQYFTFDLTALKLITQPLPAATWTDDTPTGSNGALRPGISFHPKLRPILLPNKSGKKGNSADLTSPEKIQAIMTSLQDFKIVPIDPTKNIMGIEVPETLVHKLTGKKVTSKNGQPIIPVLLPKYIGLDPVAPGDLTMVITQDCDTCHSPASLPAVIEK"}}, "molecular_target": "the molecule itself", "assay": "SEC", "data": [{"protein": "B1", "values": [{"measurement": "binding result", "value": "binds"}]}]}
